For one substance, ATPase activity of TerL^P74-26 upon mixing with gp83, no DNA present and stoichiometry N results are on record in publication doi:10.1101/851345.

The target in experiment [1] is TerL^P74-26, large terminase of bacteriophage P74-26 (bacteriophage P74-26).
The target of experiment [2] is TerS^P74-26, small terminase of the thermophilic bacteriophage P74-26 (gp83) (bacteriophage P74-26). As to the kind of experiment: SEC-MALS. (In general: SEC sorts molecules by how far they enter the pores of the column.)

The stoichiometry N is the number of molecules, sites or subunits per partner or assembly. In the case of “TerS^P74-26, small terminase of the thermophilic bacteriophage P74-26 (gp83) (natural protein)”, the ATPase activity of TerL^P74-26 upon mixing with gp83, no DNA present in experiment [1] was determined as 4.4 fold. The stoichiometry N in experiment [2] stood at 9.
